Data as given in article doi:10.1101/2024.09.05.611129 (bioRxiv, 2024).

Target: the molecule itself
Experiment: SEC

B1: Mycobacterium tuberculosis catalase-peroxidase KatG (enzyme)
chain: MPEQHPPITETTTGAASNGCPVVGHMKYPVEGGGNQDWWPNRLNLKVLHQNPAVADPMGAAFDYAAEVATIDVDALTRDIEEVMTTSQPWWPADYGHYGPLFIRMAWHAAGTYRIHDGRGGAGGGMQRFAPLNSWPDNASLDKARRLLWPVKKKYGKKLSWADLIVFAGNCALESMGFKTFGFGFGRVDQWEPDEVYWGKEATWLGDERYSGKRDLENPLAAVQMGLIYVNPEGPNGNPDPMAAAVDIRETFRRMAMNDVETAALIVGGHTFGKTHGAGPADLVGPEPEAAPLEQMGLGWKSSYGTGTGKDAITSGIEVVWTNTPTKWDNSFLEILYGYEWELTKSPAGAWQYTAKDGAGAGTIPDPFGGPGRSPTMLATDLSLRVDPIYERITRRWLEHPEELADEFAKAWYKLIHRDMGPVARYLGPLVPKQTLLWQDPVPAVSHDLVGEAEIASLKSQIRASGLTVSQLVSTAWAAASSFRGSDKRGGANGGRIRLQPQVGWEVNDPDGDLRKVIRTLEEIQESFNSAAPGNIKVSFADLVVLGGCAAIEKAAKAAGHNITVPFTPGRTDASQEQTDVESFAVLEPKADGFRNYLGKGNPLPAEYMLLDKANLLTLSAPEMTVLVGGLRVLGANYKRLPLGVFTEASESLTNDFFVNLLDMGITWEPSPADDGTYQGKDGSGKVKWTGSRVDLVFGSNSELRALVEVYGADDAQPKFVQDFVAAWDKVMNLDRFDVR
**Q.** How did the “stoichiometry N” value turn out when B1 was run?
**A.** Its value is 2.
